{"source": "patent US20220098287A1", "key": {"[1]": {"biological_target": "human α-CGRP K35A (19-37) (human)", "test": "SPR (Biacore), 25 °C, Fab over peptide on SA chip; KD of mutant over KD of parent 19-37"}, "[2]": {"biological_target": "human α-CGRP T30A (25-37) (human)", "test": "SPR (Biacore), 25 °C, Fab over peptide on SA chip; KD of mutant over KD of parent 25-37"}, "[3]": {"biological_target": "human α-CGRP S34A (25-37) (human)", "test": "SPR (Biacore), 25 °C, Fab over peptide on SA chip; KD of mutant over KD of parent 25-37"}, "[4]": {"biological_target": "human α-CGRP F37A (25-37) (human)", "test": "SPR (Biacore), 25 °C, Fab over peptide on SA chip; KD of mutant over KD of parent 25-37"}, "[5]": {"biological_target": "human α-CGRP V32A (25-37) (human)", "test": "SPR (Biacore), 25 °C, Fab over peptide on SA chip; KD of mutant over KD of parent 25-37"}, "[6]": {"biological_target": "human α-CGRP P29A (25-37) (human)", "test": "SPR (Biacore), 25 °C, Fab over peptide on SA chip; KD of mutant over KD of parent 25-37"}, "[7]": {"biological_target": "human α-CGRP G33A (25-37) (human)", "test": "SPR (Biacore), 25 °C, Fab over peptide on SA chip; KD of mutant over KD of parent 25-37"}, "[8]": {"biological_target": "human α-CGRP N31A (25-37) (human)", "test": "SPR (Biacore), 25 °C, Fab over peptide on SA chip; KD of mutant over KD of parent 25-37"}}}
{"substance": "murine anti-CGRP monoclonal antibody 7E9, Fab fragment", "values": [{"measurement": "KD (mutant/parent)", "setting": "[1]", "value": 4}, {"measurement": "KD (mutant/parent)", "setting": "[2]", "value": 7}, {"measurement": "KD (mutant/parent)", "setting": "[3]", "value": 69}, {"measurement": "KD (mutant/parent)", "setting": "[4]", "value": 3600}, {"measurement": "KD (mutant/parent)", "setting": "[5]", "value": 41}, {"measurement": "KD (mutant/parent)", "setting": "[6]", "value": 26}, {"measurement": "KD (mutant/parent)", "setting": "[7]", "value": 1260}, {"measurement": "KD (mutant/parent)", "setting": "[8]", "value": 9}]}
